According to patent publication US20230002466A1 (ELPIS BIOPHARMACEUTICALS, published 2023):
Like-named read-outs stand apart in the source and are kept apart here.

Experiments:
human IL2Rβ [1] = molecular target: T1, human IL2Rβ (human, UniProt P14784 27-239); test: SPR, single concentration
T1 construct: also called IL2β; CD122
T1 sequence (looked up): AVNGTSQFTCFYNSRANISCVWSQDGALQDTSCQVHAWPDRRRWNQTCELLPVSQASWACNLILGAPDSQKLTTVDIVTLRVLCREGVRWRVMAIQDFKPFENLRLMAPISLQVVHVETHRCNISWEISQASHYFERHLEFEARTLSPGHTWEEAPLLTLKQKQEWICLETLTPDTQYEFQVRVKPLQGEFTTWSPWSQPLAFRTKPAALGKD

[2] = molecular target: T2, human IL2Rβ Fc fusion protein (human, UniProt P14784 27-239); test: ELISA, Fc-tagged receptor coated, anti-HisTag-HRP
T2 construct: also called Recombinant Fc-tagged human IL2Rβ; not shown: Fc
T2 sequence (looked up): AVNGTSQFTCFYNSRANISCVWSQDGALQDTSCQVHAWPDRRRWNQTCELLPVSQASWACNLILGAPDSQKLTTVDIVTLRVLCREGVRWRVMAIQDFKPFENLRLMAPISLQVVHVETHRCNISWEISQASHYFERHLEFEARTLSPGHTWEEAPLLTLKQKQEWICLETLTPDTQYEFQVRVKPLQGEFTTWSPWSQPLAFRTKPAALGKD
Description: (§1) Recombinant Fc-tagged human IL2Rα and IL2Rβ were added in 25 uL of 1×PBS to wells of 384-well plate and incubated overnight at 4° C. to coat the plates. Plates were washed three times with 0.05% Tween20/1×PBS. Plates were blocked with 100 uL of SuperBlock for 1 hr at RT and then washed 3 times with 0.05% Tween20/1×PBS. IL2 mutants were diluted in 0.05% Tween 20/1×PBS from 1000 nM to 0 nM and added to plates for 2 hrs at room temperature. Plates were then washed 6 times with 0.05% Tween20/1×PBS. Anti-HisTag-HRP was diluted 1:5000 in 0.05% Tween20/1×PBS and added to plates for 1 hr at RT. Plates were then washed 6 times with 0.05% Tween 20/1×PBS, and TMB was added to develop blue color. Reactions were stopped with 2N […] and light absorbance at 450 nm was read on a BioTek plate reader.

human IL2Rβ [3] = molecular target: T1, human IL2Rβ; test: SPR, IL2Rβ captured on Protein A chip, steady state affinity fitting
Description: (§2) The assay was run with Biacore T200 control software version 2.0. For each cycle, 1 ug/mL of human IL2Rβ was captured for 60 seconds at flow rate of 10 uL/min on flow cell 2 in 1×HBSP buffer on Protein A sensor chip. 100 nM of HIS and Flag tag purified each IL2 mutant was 2-fold serial diluted and injected onto both reference flow cell 1 and IL2Rβ captured flow cell 2 for 150 seconds at flow rate of 30 uL/min followed by washing for 300 seconds. The flow cells were then regenerated with Glycine pH2 for 60 seconds at a flow rate of 30 uL/min. The assay was set up with 8 serial diluted concentration points in 96-well format. The kinetics data was analyzed with Biacore T200 evaluation software 3.0. The specific binding response unit was derived from subtraction of binding to reference flow cell 1 from target flow cell 2 (FIGS. 16A-16F, Table 10).

[4] = molecular target: T3, human IL2Rα Fc fusion protein (human, UniProt P01589 22-213, limits assumed); test: ELISA, Fc-tagged receptor coated, anti-HisTag-HRP
T3 construct: also called Recombinant Fc-tagged human IL2Rα; not shown: Fc
T3 sequence (looked up): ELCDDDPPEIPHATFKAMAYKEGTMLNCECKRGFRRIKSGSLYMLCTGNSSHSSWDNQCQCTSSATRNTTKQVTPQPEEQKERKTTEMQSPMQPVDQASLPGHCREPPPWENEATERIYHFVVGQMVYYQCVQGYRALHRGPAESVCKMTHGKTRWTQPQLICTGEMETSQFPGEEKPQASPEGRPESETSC
Description: as §1

[5] = molecular target: T3, human IL2Rα Fc fusion protein; test: ELISA, receptor-Fc coated, anti-Flag HRP
In short: (§3)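 Plates coated overnight at 4 C with IL2Rα or IL2Rβ Fc fusion at 2 ug/mL, then blocked. Flag-tagged IL2 mutant dilutions were added in duplicate, and binding was detected with anti-Flag HRP (1:5000) and TMB for 5 min. EC50 was fitted from OD450.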

[6] = molecular target: T2, human IL2Rβ Fc fusion protein; test: ELISA, receptor-Fc coated, anti-Flag HRP
In short: as §3

human IL2Rβ [7] = molecular target: T1, human IL2Rβ; test: SPR, IL2Rβ captured on Protein A chip
Description: Kinetic analysis of the receptor binding activities of IL2Rβ agonist with IL2Rα reduced activity mutations have been assessed by SPR technology with Biacore T200. The assay was run with Biacore T200 control software version 2.0. For each cycle, 1 ug/mL of human IL2Rβ was captured for 60 seconds at flow rate of 10 ul/min on flow cell 2 in 1×HBSP buffer on Protein A sensor chip. 100 nM of HIS and Flag tag purified each IL2 mutant was 2 fold serial diluted and injected onto both reference flow cell 1 and IL2Rβ captured flow cell 2 for 150 seconds at flow rate of 30 ul/mins followed by wash for 300 seconds. The flow cells were then regenerated with Glycine pH2 for 60 seconds at flow rate of 30 ul/mins. The assay was set up with 8 serial diluted concentration points in 96 well format. The kinetics data was analyzed with Biacore T200 evaluation software 3.0. The specific binding response unit was derived from subtraction of binding to reference flow cell 1 from target flow cell 2.

human IL2Rα [8] = molecular target: T4, human IL2Rα (human, UniProt P01589 22-213, limits assumed); test: SPR (Biacore T200), human IL2Rα, IL2 mutant in two-fold dilutions from 100 nM (Example 13)
T4 construct: also called IL2α; CD25
T4 sequence (looked up): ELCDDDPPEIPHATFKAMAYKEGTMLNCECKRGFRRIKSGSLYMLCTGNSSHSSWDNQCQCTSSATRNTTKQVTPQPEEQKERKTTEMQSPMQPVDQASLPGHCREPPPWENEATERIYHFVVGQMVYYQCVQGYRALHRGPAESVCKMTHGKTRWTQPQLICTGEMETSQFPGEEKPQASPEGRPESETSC

human IL2Rβ [9] = molecular target: T1, human IL2Rβ; test: SPR, IL2Rβ captured on Protein A chip; remark: listed apart in the source
Description: as §2

human IL2Rα [10] = molecular target: T4, human IL2Rα; test: SPR (Biacore T200), human IL2Rα, IL2 mutant in two-fold dilutions from 100 nM (Example 13); remark: listed apart in the source
human IL2Rβ [11] = molecular target: T1, human IL2Rβ; test: SPR, multi-concentration
human IL2Rα [12] = molecular target: T4, human IL2Rα; test: SPR (Biacore T200), human IL2Rα, one trace per clone drawn, concentrations not printed (Example 13)
[13] = molecular target: T3, human IL2Rα Fc fusion protein; test: ELISA, single point, Fc-tagged human IL2Rα coated, anti-His-HRP; concentration not printed (Example 14)
Description: as §1

human IL2Rα [14] = molecular target: T4, human IL2Rα; test: SPR (Biacore T200), human IL2Rα, IL2 mutant in two-fold dilutions from 100 nM (Example 13); remark: listed apart in the source
human IL2Rα [15] = molecular target: T4, human IL2Rα; test: as above; remark: listed apart in the source

B1: EP349 (ligand)
chain: APTSSSTKKTQLQLEHLLLDLQMILNGINNYKNPKLTRMLTAKFYMPKKATELKHLQCLEEELKPLEEVLNLAQSKNFHLTARDAIDNINVIVQELKGSETTFMCEYADETATIVEFLNRWITFSQSIISTLTGSHHHHHH
- Kd (human IL2Rβ [1]): 2.79 nM
- EC50 [2]: 948 nM

B2: EP345 (ligand)
chain: APTSSSTKKTQLQLEHLLLDLQMILNGINNYKNPKLTVMLTFKFSMPKKATELKHLQCLEEELKPLEEVLNLAQSKNFHLTARDAIDNINVIVQELKGSETTFMCEYADETATIVEFLNRWITFSQSIISTLTGSHHHHHH
- Kd (human IL2Rβ [1]): 12.5 nM
- EC50 [2]: 152 nM

B3: EP252 (ligand)
chain: APTSSSTKKTQLQLEHLLLDLQMILNGINNYKNPKLTRMLTFKFYMPKKATELKHLQCLEEELKPLEEVLNLAQSKNFHLTPRDAIDNIRVIVQELKGSETTFMCEYADETATIVEFLNRWITFCQSIISTLT
notes: not shown: His and Flag tags
- Kd (human IL2Rβ [3]): 9.11 nM
- EC50 [4]: 13.8 nM
- EC50 [2]: 24.5 nM
- EC50 [5]: 13 nM
- EC50 [6]: 2.2 nM

B4: EP253 (ligand)
chain: APTSSSTKKTQLQLEHLLLDLQMILNGINNYKNPKLTRMLTFKFYMPKKATELKHLQCLEEELKPLEEVLNLAQSKNFHLTPRDAIDNIRVIILELKGSETTFMCEYADETATIVEFLNRWITFCQSIISTLT
notes: not shown: His and Flag tags
- Kd (human IL2Rβ [3]): 29.5 nM
- EC50 [4]: 8.9 nM
- EC50 [2]: 52.8 nM
- EC50 [5]: 48.5 nM
- EC50 [6]: 4.8 nM

B5: EP407 (ligand)
chain: APTSSSTKKTQLQLEHLLLDLQMILNGINNYKNPKLTDMLTFKFSMPKKATELKHLQCLEEELKPLEEVLNLAQSKNFHLTARDAVDNMRVIIQELKGSETTFMCEYADETATIVEFLNRWITFCQSIISTLT
notes: not shown: His and Flag tags
- Kd (human IL2Rβ [7]): 0.611 nM
- koff (human IL2Rβ [7]): 0.00509 s⁻¹
- kon (human IL2Rβ [7]): 8.34e+06 M⁻¹ s⁻¹
- binding result (human IL2Rα [8]): no binding (tested: 100 nM)

B6: EP258 (ligand)
chain: APTSSSTKKTQLQLEHLLLDLQMILNGINNYKNPKLTRMLTFKFYMPKKATELKHLQCLEEELKPLEEVLNLAQSKNFHLTARDAISNINVIIQELKGSETTFMCEYADETATIVEFLNRWITFCQSIISTLT
notes: not shown: His and Flag tags
- Kd (human IL2Rβ [9]): 8.81 nM
- koff (human IL2Rβ [9]): 0.0301 s⁻¹
- kon (human IL2Rβ [9]): 3.42e+06 M⁻¹ s⁻¹
- EC50 [4]: 9.1 nM
- EC50 [2]: 119 nM
- EC50 [5]: 2.5 nM
- EC50 [6]: 6.5 nM

B7: EP408 (ligand)
chain: APTSSSTKKTQLQLEHLLLDLQMILNGINNYKNPKLTDMLTFKFSMPKKATELKHLQCLEEELKPLEEVLNLAQSKNFHLGVTDSISNAIVLARELKGSETTFMCEYADETATIVEFLNRWITFCQSIISTLT
notes: not shown: His and Flag tags
- binding result (human IL2Rα [10]): no binding (tested: 100 nM)
- Kd (human IL2Rβ [7]): 0.233 nM
- koff (human IL2Rβ [7]): 0.000598 s⁻¹
- kon (human IL2Rβ [7]): 2.56e+06 M⁻¹ s⁻¹

B8: EP338 (ligand)
chain: APTSSSTKKTQLQLEHLLLDLQMILNGINNYKNPLLTDMLTRKFYMPKKATELKHLQCLEEELKPLEEVLNLAQSKNFHLTARDAISNINVIIQELKGSETTFMCEYADETATIVEFLNRWITFCQSIISTLT
notes: not shown: His and Flag tags
- Kd (human IL2Rβ [11]): 38.3 nM
- binding result (human IL2Rα [12]): no binding (tested: not printed)
- binding result [13]: no binding (tested: not printed)
- EC50 [2]: 105 nM

B9: EP402 (ligand)
chain: APTSSSTKKTQLQLEHLLLDLQMILNGINNYKNPSLTRMLTGKFYMPKKATELKHLQCLEEELKPLEEVLNLAQSKNFHLGVTDSISNAIVLARELKGSETTFMCEYADETATIVEFLNRWITFCQSIISTLT
notes: not shown: His and Flag tags
- Kd (human IL2Rβ [7]): 0.108 nM
- koff (human IL2Rβ [7]): 0.000397 s⁻¹
- kon (human IL2Rβ [7]): 3.68e+06 M⁻¹ s⁻¹
- binding result (human IL2Rα [14]): no binding (tested: 100 nM)

B10: EP340 (ligand)
chain: APTSSSTKKTQLQLEHLLLDLQMILNGINNYKNPLLTDMLTRKFYMPKKATELKHLQCLEEELKPLEEVLNLAQSKNFHLTPRDAIDNIRVIILELKGSETTFMCEYADETATIVEFLNRWITFCQSIISTLT
notes: not shown: His and Flag tags
- binding result (human IL2Rα [12]): no binding (tested: not printed)
- binding result [13]: no binding (tested: not printed)
- EC50 [2]: 185 nM

B11: EP401 (ligand)
chain: APTSSSTKKTQLQLEHLLLDLQMILNGINNYKNPSLTRMLTGKFYMPKKATELKHLQCLEEELKPLEEVLNLAQSKNFHLTARDAVDNMRVIIQELKGSETTFMCEYADETATIVEFLNRWITFCQSIISTLT
notes: not shown: His and Flag tags
- Kd (human IL2Rβ [7]): 0.855 nM
- koff (human IL2Rβ [7]): 0.00616 s⁻¹
- kon (human IL2Rβ [7]): 7.21e+06 M⁻¹ s⁻¹
- binding result (human IL2Rα [15]): no binding (tested: 100 nM)

B12: EP339 (ligand)
chain: APTSSSTKKTQLQLEHLLLDLQMILNGINNYKNPLLTDMLTRKFYMPKKATELKHLQCLEEELKPLEEVLNLAQSKNFHLTPRDAIDNIRVIVQELKGSETTFMCEYADETATIVEFLNRWITFCQSIISTLT
notes: not shown: His and Flag tags
- Kd (human IL2Rβ [11]): 35.9 nM
- binding result (human IL2Rα [12]): no binding (tested: not printed)
- binding result [13]: no binding (tested: not printed)
- EC50 [2]: 96.3 nM
